# Experimental data from patent US20260152536.
# Tests used:
# IL-12p70-L2-TM = IL-12p70-L2-TM (UniProt P43432)
# IL-12p70-L3-TM = IL-12p70-L3-TM (UniProt P43432)
# IL-12p70-L4-TM = IL-12p70-L4-TM (UniProt P43432)
# IL-12p70-L4s-TM = IL-12p70-L4s-TM (UniProt P43432)
# IL-12p70-L5-TM = IL-12p70-L5-TM (UniProt P43432)
# Chain of IL-12p70-L5-TM (P43432 other isoform, or with tags, fused parts or gaps): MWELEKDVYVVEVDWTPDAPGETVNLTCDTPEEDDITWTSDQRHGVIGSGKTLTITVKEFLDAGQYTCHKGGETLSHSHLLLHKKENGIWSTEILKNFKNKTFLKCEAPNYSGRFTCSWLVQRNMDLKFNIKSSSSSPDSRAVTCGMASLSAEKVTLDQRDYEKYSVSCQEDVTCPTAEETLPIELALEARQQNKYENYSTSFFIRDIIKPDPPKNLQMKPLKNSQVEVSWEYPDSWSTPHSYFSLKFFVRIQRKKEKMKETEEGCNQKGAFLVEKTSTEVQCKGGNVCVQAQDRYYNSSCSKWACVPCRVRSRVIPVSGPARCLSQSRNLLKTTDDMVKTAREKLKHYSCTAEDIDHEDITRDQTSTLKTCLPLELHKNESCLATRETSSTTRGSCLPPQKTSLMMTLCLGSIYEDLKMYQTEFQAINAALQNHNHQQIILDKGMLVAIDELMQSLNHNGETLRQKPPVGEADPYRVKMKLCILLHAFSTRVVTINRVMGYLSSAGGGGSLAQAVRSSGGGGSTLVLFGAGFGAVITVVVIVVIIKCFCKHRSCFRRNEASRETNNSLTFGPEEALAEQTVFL
# Chain of activated murine MMP2 (matrix metalloprotease 2) (chain, as listed by the source): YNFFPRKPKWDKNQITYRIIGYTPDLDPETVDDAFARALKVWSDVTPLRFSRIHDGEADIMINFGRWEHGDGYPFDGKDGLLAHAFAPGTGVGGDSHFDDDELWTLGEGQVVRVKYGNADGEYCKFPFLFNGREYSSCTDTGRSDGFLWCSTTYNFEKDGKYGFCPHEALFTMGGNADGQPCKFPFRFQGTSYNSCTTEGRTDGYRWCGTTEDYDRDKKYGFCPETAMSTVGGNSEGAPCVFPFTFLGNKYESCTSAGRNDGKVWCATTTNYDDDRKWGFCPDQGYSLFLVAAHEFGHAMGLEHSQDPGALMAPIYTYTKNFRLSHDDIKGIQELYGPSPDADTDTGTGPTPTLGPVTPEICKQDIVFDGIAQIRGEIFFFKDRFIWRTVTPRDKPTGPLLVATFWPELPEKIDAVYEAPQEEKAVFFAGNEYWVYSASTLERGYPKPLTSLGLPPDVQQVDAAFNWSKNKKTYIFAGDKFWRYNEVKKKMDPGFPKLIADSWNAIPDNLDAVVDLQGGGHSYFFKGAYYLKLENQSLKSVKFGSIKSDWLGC
# Chain of IL-12p70-L4-TM (P43432 other isoform, or with tags, fused parts or gaps): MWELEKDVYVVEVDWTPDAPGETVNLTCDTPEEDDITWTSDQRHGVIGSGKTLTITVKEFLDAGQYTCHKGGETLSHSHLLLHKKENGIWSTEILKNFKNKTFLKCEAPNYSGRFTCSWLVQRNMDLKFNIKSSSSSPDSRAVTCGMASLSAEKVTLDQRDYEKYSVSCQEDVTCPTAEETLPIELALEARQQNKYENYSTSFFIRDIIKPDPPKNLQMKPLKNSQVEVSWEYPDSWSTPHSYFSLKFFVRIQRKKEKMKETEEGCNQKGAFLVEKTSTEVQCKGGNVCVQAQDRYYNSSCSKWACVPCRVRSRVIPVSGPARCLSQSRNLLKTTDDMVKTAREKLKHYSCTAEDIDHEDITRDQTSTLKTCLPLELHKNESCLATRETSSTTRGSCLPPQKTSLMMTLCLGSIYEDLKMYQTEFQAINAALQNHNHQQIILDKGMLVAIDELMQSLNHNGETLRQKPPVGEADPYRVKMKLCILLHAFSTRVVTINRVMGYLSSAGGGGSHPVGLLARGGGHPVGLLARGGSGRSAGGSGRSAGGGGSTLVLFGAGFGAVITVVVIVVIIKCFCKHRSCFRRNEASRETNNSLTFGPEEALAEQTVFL
# Chain of IL-12p70-L3-TM (P43432 other isoform, or with tags, fused parts or gaps): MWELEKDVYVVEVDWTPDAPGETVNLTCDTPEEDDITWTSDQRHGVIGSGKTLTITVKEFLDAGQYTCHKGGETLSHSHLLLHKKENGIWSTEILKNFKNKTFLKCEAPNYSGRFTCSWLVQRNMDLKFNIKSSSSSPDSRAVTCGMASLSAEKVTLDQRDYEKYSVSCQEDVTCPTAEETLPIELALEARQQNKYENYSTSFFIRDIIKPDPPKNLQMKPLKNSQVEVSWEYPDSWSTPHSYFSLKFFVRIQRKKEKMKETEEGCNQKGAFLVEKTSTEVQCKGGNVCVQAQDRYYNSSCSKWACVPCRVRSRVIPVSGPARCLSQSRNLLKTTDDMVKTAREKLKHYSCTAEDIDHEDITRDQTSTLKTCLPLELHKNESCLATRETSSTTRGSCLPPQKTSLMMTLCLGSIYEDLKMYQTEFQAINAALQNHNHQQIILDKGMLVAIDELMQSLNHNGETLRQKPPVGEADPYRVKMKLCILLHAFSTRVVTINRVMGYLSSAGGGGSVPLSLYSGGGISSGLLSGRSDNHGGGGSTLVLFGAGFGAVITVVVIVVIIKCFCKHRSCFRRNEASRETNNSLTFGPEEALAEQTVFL
# Chain of IL-12p70-L4s-TM (P43432 other isoform, or with tags, fused parts or gaps): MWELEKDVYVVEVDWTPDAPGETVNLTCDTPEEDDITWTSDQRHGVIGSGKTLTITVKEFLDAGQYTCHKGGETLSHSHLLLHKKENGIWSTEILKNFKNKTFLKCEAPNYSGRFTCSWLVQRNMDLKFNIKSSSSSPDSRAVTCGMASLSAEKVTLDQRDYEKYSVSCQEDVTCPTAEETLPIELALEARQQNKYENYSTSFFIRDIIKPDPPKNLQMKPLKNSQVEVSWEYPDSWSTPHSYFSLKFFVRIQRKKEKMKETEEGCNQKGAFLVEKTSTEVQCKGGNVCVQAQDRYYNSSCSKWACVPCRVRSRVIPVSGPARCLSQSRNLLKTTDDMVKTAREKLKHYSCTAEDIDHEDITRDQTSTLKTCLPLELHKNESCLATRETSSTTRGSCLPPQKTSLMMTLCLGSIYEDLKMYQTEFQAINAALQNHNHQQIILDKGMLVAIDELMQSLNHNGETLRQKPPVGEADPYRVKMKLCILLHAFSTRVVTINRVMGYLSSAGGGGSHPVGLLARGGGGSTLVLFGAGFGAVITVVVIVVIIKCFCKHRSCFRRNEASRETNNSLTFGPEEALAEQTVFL
# Chain of IL-12p70-L2-TM (P43432 other isoform, or with tags, fused parts or gaps): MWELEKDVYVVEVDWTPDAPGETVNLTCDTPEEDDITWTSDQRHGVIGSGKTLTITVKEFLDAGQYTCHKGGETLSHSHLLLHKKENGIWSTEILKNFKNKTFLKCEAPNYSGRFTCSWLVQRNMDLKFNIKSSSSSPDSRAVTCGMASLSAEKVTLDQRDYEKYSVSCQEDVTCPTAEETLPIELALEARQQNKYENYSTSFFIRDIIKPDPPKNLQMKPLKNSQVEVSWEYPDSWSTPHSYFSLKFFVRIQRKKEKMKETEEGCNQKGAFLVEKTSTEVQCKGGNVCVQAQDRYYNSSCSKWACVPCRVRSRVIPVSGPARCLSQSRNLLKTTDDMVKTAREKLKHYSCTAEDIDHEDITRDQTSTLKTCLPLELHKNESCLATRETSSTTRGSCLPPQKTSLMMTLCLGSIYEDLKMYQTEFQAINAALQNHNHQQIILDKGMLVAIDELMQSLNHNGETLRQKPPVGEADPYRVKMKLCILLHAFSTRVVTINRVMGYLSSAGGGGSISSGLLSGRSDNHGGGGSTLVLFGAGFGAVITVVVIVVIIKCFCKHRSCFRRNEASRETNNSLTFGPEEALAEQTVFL
substance,measurement,setting,value
activated murine MMP2 (matrix metalloprotease 2),"release of cleaved (therefore soluble) IL-12p70 into the supernatant, ELISA",IL-12p70-L2-TM,a time-dependent release of IL-12p70 was observed
same,"release of cleaved (therefore soluble) IL-12p70 into the supernatant, ELISA",IL-12p70-L3-TM,a time-dependent release of IL-12p70 was observed
same,"release of cleaved (therefore soluble) IL-12p70 into the supernatant, ELISA",IL-12p70-L4-TM,a time-dependent release of IL-12p70 was observed
same,"release of cleaved (therefore soluble) IL-12p70 into the supernatant, ELISA",IL-12p70-L4s-TM,a time-dependent release of IL-12p70 was observed
same,"release of cleaved (therefore soluble) IL-12p70 into the supernatant, ELISA",IL-12p70-L5-TM,a time-dependent release of IL-12p70 was observed
